The source of these data is US20060030530A1.

For assay [1], the target named is endogenous human LSR of PLC hepatoma cells (human) (UniProt Q86X29). Put plainly: cell-based or functional assay.
In assay [2] the target is human LSR α′ subunit expressed in CHO-K1 cells (human) (UniProt Q86X29). Put plainly: cell-based or functional assay.
The target is the same in assay [3]. Put plainly: cell-associated ^125I-leptin on CHO-K1 cells stably expressing LSR α′, 37° C., 2 h; Lineweaver-Burk transformation (FIG. 3C, inset).

endogenous human LSR of PLC hepatoma cells (human), sequence (Q86X29 whole entry): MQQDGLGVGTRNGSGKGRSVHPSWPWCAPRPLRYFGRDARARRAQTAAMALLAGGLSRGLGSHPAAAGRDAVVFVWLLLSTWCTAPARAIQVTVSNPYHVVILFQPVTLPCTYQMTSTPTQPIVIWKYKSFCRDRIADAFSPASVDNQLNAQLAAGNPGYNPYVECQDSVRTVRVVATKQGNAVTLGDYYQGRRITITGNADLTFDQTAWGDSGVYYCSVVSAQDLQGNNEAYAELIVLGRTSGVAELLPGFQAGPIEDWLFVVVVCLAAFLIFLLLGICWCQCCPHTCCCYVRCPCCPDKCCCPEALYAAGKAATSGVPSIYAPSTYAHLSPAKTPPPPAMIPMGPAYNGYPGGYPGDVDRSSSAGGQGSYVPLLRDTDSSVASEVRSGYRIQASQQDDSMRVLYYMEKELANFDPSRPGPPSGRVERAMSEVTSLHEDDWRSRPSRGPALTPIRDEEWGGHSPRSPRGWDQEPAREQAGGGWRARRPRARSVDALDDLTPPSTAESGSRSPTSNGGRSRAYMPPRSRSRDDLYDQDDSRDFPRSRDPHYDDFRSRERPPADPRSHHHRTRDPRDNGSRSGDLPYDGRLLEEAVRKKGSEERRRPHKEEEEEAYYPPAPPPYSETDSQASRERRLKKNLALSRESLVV
human LSR α′ subunit expressed in CHO-K1 cells (human), sequence (Q86X29 whole entry): as above

In the case of “recombinant human leptin (from UniProt P41159 22-167) (ligand)”, in assay [1], the acute leptin stimulation of oleate-induced ^125I-LDL binding in PLC cells preincubated 24 h with 200 ng/mL leptin: leptin concentration giving the maximal effect was determined as 100 ng/mL; the acute leptin stimulation of oleate-induced ^125I-LDL binding in PLC cells preincubated 24 h with 200 ng/mL leptin: reduction of the maximal effect is 50%; the oleate-induced LSR binding uptake and degradation of ^125I-LDL in PLC cells was over 10 ng/mL.

Substance “^125I-leptin (species not stated) (ligand)” registered a ^125I-leptin degradation by PLC cells (TCA-soluble chloroform-insoluble products) in assay [1] of over 10 ng/mL. In assay [2], this substance registered a ^125I-leptin degraded relative to that bound and internalized of 16%. The substance also displayed a Kd in assay [3] of 1.3 nM.

As usually defined, the Kd is the constant that tells how readily two partners part at equilibrium.
